Measured values published in paper PMC3521961, “Molecular Basis for Recognition of Dilysine Trafficking Motifs by COPI” (Developmental Cell, 2012).
Blank lines part the entries; values can stand above or below the binder they belong to. No end group written: not given here.

Tests used:
Settings in all cases: both partners purified
[1] = molecular target: T1, yeast β'-COP 1-304 (N-terminal WD-repeat domain), untagged, wild type (yeast (S. cerevisiae), UniProt P41811 1-304); assay: crystal structure; β'1-304 (untagged) with CTFKKTN; details in the Supplemental Experimental Procedures
T1 construct: also called β'-COP N-terminal WD-repeat domain
T1 sequence (looked up): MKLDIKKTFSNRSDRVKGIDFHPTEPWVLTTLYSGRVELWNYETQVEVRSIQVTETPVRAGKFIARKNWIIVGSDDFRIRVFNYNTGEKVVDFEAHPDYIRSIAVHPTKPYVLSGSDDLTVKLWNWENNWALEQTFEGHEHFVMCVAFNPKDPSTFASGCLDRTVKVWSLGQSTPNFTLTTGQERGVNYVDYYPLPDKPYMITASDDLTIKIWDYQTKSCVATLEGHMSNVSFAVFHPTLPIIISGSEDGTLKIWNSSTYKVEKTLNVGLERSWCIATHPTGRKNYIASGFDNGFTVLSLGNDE

[2] = molecular target: T2, yeast β'-COP 1-304 (N-terminal WD-repeat domain), untagged (yeast (S. cerevisiae), UniProt P41811 1-304); assay: ITC; Microcal VP-ITC, 10°C; peptide in the syringe, protein in the cell; 50 mM Hepes pH 7.4, 100 mM NaCl
T2 construct: source: E. coli BL21(DE3)pLysS, purified (glutathione sepharose, thrombin cleavage, S200 gel filtration); not shown: GST, C-terminal, cleaved
T2 sequence (looked up): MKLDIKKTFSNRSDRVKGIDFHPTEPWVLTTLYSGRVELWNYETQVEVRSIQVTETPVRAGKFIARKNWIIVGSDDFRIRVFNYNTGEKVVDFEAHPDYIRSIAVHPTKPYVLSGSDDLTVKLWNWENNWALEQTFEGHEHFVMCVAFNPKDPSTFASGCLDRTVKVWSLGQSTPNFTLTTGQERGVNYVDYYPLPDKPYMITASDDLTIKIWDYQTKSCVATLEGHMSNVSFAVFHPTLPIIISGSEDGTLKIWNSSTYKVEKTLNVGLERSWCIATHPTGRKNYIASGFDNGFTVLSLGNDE

[3] = molecular target: T1, yeast β'-COP 1-304 (N-terminal …); assay: ITC; Microcal VP-ITC, 10°C; peptide in the syringe at ten times the molar concentration of the β'-COP construct in the cell; 50 mM HEPES (pH 7.4), 100 mM NaCl
[4] = molecular target: T3, yeast α-COP 1-327 (N-terminal WD-repeat domain), wild type (yeast (S. cerevisiae), UniProt P53622 1-327); assay: ITC; Microcal VP-ITC, 10°C, 35 injections of 8 µL; peptide in the syringe at ten times the molar concentration of the protein in the cell; α-COP desalted into 20 mM Hepes pH 7.4, 300 mM NaCl (high salt required for stability)
T3 construct: α-COP (Ret1), yeast, residues 1-327, N-terminal WD-repeat domain; also called α1-327; Wild type A327; source: E. coli BL21(DE3)pLysS, purified (glutathione sepharose, thrombin cleavage, S200 gel filtration); not shown: GST, C-terminal, cleaved
T3 sequence (looked up): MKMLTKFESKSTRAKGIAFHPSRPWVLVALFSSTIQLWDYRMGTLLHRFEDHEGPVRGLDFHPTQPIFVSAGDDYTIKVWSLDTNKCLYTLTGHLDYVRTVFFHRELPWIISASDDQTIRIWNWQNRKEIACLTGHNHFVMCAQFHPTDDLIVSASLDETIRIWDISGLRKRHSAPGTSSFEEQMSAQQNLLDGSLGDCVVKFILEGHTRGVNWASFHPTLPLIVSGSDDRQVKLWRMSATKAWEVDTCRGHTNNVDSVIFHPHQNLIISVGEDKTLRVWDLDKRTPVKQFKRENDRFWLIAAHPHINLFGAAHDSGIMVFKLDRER

[5] = molecular target: T4, yeast β'-COP 1-604 (both WD-repeat domains) (yeast (S. cerevisiae), UniProt P41811 1-604); assay: crystal structure; β'1-604 (10 mg/ml) with CTFKTKTN (30 mg/ml, mixed 1:10); 0.1 M bicine (pH 9.0), 10% MPD; space group P3(1), twinned
T4 construct: constructs are in the Supplemental Experimental Procedures
T4 sequence (looked up): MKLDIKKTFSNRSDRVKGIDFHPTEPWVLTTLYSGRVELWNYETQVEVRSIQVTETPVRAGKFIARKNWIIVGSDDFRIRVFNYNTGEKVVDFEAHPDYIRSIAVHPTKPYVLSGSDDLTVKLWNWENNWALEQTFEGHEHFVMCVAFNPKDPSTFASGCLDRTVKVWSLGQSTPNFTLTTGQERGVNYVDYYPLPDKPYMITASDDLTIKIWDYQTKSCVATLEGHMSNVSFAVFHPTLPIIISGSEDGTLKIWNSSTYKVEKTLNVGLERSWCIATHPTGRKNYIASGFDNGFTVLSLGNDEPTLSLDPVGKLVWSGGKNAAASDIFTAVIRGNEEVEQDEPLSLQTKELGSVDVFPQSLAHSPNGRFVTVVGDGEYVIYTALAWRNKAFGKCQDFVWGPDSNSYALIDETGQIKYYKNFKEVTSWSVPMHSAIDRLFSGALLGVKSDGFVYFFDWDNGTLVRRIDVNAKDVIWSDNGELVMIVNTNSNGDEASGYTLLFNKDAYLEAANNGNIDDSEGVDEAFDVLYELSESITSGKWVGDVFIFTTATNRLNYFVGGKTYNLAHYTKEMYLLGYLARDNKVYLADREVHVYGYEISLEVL

[6] = molecular target: T1, yeast β'-COP 1-304 (N-terminal …); assay: crystal structure; β'1-304 (10 mg/ml) with CTFKTKTN (30 mg/ml, mixed 1:10); 0.1 M HEPES (pH 7.5), 0.5 M ammonium sulfate, 30% v/v MPD; space group P6(1)
[7] = molecular target: T5, yeast β'-COP 1-304 D206A E248A (yeast (S. cerevisiae), UniProt P41811 1-304, D206A | E248A); assay: ITC; Microcal VP-ITC, 10°C; peptide in the syringe at ten times the molar concentration of the β'-COP construct in the cell; 50 mM HEPES (pH 7.4), 100 mM NaCl
T5 construct: constructs are in the Supplemental Experimental Procedures; also called D206A E248A mutant
T5 sequence (looked up): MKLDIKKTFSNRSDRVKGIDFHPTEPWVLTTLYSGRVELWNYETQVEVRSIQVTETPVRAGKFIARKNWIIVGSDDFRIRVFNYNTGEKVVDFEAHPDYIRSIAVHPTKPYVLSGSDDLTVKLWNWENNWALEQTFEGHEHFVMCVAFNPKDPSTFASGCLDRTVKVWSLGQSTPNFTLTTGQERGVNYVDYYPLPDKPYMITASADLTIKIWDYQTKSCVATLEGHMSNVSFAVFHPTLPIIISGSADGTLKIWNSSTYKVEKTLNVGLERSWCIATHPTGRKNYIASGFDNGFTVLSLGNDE

[8] = molecular target: T6, yeast β'-COP 1-304 R15A K17A R59A (yeast (S. cerevisiae), UniProt P41811 1-304, R15A | K17A | R59A); assay: as above
T6 construct: constructs are in the Supplemental Experimental Procedures; also called β'-COP R15A K17A R59A mutant
T6 sequence (looked up): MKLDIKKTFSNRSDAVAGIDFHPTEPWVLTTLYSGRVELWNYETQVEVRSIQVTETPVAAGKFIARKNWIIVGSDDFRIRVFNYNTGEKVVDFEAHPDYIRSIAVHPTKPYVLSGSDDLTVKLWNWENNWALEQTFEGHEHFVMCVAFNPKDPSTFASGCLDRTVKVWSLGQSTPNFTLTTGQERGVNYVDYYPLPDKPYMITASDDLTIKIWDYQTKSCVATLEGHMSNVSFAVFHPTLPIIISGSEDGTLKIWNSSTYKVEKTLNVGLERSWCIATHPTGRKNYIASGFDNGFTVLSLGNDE

[9] = molecular target: T7, yeast β'-COP 1-304 D98A D117A (yeast (S. cerevisiae), UniProt P41811 1-304, D98A | D117A); assay: as above
T7 construct: constructs are in the Supplemental Experimental Procedures; also called D98A D117A mutant
T7 sequence (looked up): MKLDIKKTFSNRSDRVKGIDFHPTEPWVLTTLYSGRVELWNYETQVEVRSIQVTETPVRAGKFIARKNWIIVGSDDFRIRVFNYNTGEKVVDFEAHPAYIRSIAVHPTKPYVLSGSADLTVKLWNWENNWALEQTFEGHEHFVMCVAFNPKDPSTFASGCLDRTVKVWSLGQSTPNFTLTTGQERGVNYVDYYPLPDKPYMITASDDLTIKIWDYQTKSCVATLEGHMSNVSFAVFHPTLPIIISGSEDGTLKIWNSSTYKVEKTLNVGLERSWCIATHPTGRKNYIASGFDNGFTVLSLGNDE

- binding result [1]: binds
B1: CTFKKTN peptide (KKxx motif derived from yeast Wbp1), used in crystallization (peptide)
peptide: CTFKKTN
notes: KKxx motif derived from the C terminus of yeast Wbp1; The N-terminal cysteine may not be a residue of Wbp1 (surmise); also called CTFKKTN motif; source: peptide

- Kd [2]: 10 to 20 µM
Binder: RQEIIKTKLL (also called KTKLL motif) [yeast Emp47 C-terminal KxKxx peptide RQEIIKTKLL]

- Kd [3]: ~85 µM
Binder: CTFKKTN-OH [Wbp1 KKTN motif peptide used for ITC]

- binding result [5]: binds
- binding result [6]: binds
B2: CTFKTKTN peptide (KxKxx motif, synthetic peptide used in crystallization) (peptide)
peptide: CTFKTKTN
notes: synthetic KxKxx peptide used in crystallization; Looks like the Wbp1-derived CTFKKTN with a threonine between the two lysines; source: synthetic peptide

Second part, the binder before the results:

Binder: RQEIISTKLL-OH [Emp47 KxKxx peptide without the -5 lysine (STKLL)]
- Kd [3]: ~160 µM

Binder: CTFKKTN-OH [KKTN motif peptide from yeast Wbp1 (as used in ITC)]
- Kd [4]: 81 µM

B3: KxKxx motif peptide from wild-type yeast Emp47 (RQEIIKTKLL) (peptide)
peptide: RQEIIKTKLL
notes: also called KTKLL motif; source: peptide
- Kd [7]: < 300 µM
- Kd [3]: 6.8 µM
- Kd [8]: < 300 µM
- Kd [9]: < 300 µM
